Source: US9346889 (MEDIAPHARMA S R L, dated 2016)

How the values were obtained:
[1] = target: T1, human ErbB3 receptor (human, UniProt P21860 20-1342); test: immunofluorescence on IR-8 human melanoma cells, 10 ug/ml, on ice
T1 construct: whole, on cells; also called HER-3; HER3

[2] = target: T1, human ErbB3 receptor; test: immunofluorescence on IR-8 human melanoma cells
Protocol: IR-8 human melanoma cells were maintained on ice for 30 minutes in the presence of 10 µg/ml of chimeric (cMP-RM-1 #1) or humanized (hMP-RM-1 #6, hMP-RM-1 #10, hMP-RM-1 #20) MP-RM-1 antibody variants and then returned to 37° C. for 60 minutes. Cells were harvested and stained with a fluorescein-labeled goat anti-human IgG antibody and analyzed by FACS.

[3] = target: T1, human ErbB3 receptor; test: hybridoma screening; reactivity with NIH/3T3 cells transfected with human ErbB3
Protocol: Four-weeks old Balb/c mice were immunized by intraperitoneal injection of live NIH/3T3 cells transfected with the human ErbB3 receptor. Seven days later, mice were given an additional intraperitoneal injection of the immunogen. After additional seven days, mice were boosted intravenously with the immunogen, and spleens were removed for cell fusion 3 days later. Somatic cell hybrids were prepared by fusion of immune splenocytes with the murine nonsecreting myeloma cell line NS-1. Hybridoma supernatants were selected on the basis of differential reactivity with LTR-ErbB3 transfected cells, but not with LTR-neo NIH/3T3. All positive hybridoma cell colonies were cloned twice by limiting dilution and further characterized.

T1 sequence (P21860 20-1342): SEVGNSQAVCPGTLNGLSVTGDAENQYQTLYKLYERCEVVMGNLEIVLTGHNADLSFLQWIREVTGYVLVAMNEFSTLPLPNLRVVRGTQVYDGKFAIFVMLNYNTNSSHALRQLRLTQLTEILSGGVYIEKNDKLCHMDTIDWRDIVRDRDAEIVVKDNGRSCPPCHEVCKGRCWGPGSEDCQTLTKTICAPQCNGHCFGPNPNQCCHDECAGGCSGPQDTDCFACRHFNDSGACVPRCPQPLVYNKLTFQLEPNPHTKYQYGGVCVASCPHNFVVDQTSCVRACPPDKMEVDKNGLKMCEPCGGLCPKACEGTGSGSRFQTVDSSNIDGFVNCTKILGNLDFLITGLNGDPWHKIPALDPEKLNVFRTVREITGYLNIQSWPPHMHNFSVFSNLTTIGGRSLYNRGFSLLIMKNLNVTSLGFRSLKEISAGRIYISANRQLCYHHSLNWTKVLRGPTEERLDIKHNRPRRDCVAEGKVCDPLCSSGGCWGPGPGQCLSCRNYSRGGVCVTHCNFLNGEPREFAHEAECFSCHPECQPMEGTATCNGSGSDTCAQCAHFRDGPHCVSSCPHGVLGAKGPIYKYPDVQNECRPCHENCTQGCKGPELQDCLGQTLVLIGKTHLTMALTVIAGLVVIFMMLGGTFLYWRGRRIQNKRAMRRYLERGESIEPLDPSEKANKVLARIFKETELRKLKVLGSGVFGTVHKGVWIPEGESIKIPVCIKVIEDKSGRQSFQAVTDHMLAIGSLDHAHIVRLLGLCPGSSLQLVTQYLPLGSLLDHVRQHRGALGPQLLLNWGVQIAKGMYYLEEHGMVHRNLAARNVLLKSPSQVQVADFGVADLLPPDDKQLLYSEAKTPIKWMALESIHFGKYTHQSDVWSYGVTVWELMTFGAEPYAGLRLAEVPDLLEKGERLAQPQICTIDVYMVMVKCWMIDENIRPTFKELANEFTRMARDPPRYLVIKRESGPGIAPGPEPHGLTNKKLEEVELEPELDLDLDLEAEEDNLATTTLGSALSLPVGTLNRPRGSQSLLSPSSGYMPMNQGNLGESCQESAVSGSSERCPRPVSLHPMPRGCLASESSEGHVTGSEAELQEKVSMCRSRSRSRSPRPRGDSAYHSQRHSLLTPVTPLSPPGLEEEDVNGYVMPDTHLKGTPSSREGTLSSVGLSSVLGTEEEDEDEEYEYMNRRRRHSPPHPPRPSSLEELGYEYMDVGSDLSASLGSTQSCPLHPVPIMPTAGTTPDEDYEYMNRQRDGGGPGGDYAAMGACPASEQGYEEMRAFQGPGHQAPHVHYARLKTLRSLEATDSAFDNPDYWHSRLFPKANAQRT

| binding result [2] | Binder | other results |
| --- | --- | --- |
| – | hMP-RM-1 #6 (antibody, human IgG1, kappa, V domains shown, Humanized IgG1/kappa, from CHO-S cells; also called humanized MP-RM-1 #6; humanized MP-RM-1#6) VH: DVQLVESGGGLVQPGGSLRLSCAASGFTFSTYGMSWVRQTPDKRLEWVATISHGDGYTYYPDSVKGRFTISRDNAKNTLYLQMSSLKSEDTAMYYCARHGDYDDDYYAMDYWGQGTLVTVSS VL: DIQMTQSPSSLSASVGDRVTITCKSSQSLLNSGNQKNYLTWYQQKPGKAPKLLIYWASTRESGVPSRFSGSGSGTDFTLTISSLQPEDFATYYCQNEYTYPLTFGQGTKVEIKR | binding result [1]: binds |
| binds | hMP-RM-1 #10 (antibody, human IgG1, kappa, V domains shown, Humanized IgG1/kappa, from CHO-S cells) VH: DVQLVESGGGLVQPGGSLRLSCAVSGFTFSTYGMSWVRQAPGKGLEWVATISHGDGYTYYPDSVKGRFTISRDNSKNTLYLQMNSLRAEDTAVYYCARHGDYDDDYYAMDYWGQGTLVTVSS VL: DIQMTQSPSSLSASVGDRVTITCKSSQSLLNSGNQKNYLTWYQQKPGKAPKLLIYWASTRESGVPSRFSGSGSGTDFTLTISSLQPEDFATYYCQNEYTYPLTFGQGTKVEIKR | – |
| – | monoclonal antibody MP-RM-1 (antibody, V domains shown, Murine IgG2a from hybridoma DSM ACC3018; also called DSM ACC3018) VH: DVQLVESGGDLVKPGGSLKLSCVVSGFTFSTYGMSWVRQTPDRRLEWVATISHGDGYTYYPDSVKGRFTISRDNAKNTLHLQMSSLKSEDTAMYYCARHGDYDDDYYAMDYWGQGTSVTVS VL: DIVMTQSPSSLTVIAGEKVTMSCKSSQSLLNSGNQKNYLTWYQQKPGQPPKLLIYWASTRESGVPDRFTGSGSGTDFTLTISSVQAEDLAVYYCQNEYTYPLTFGAGTKLELKR | binding result [3]: binds |
| binds | cMP-RM-1 #1 (antibody, human IgG1, kappa, V domains shown, Chimeric human IgG1/kappa, from CHO-S cells; Signal peptide left out; also called chimeric variant cMP-RM-1 #1) VH: DVQLVESGGDLVKPGGSLKLSCVVSGFTFSTYGMSWVRQTPDRRLEWVATISHGDGYTYYPDSVKGRFTISRDNAKNTLHLQMSSLKSEDTAMYYCARHGDYDDDYYAMDYWGQGTSVTFSS VL: DIVMTQSPSSLTVIAGEKVTMSCKSSQSLLNSGNQKNYLTWYQQKPGQPPKLLIYWASTRESGVPDRFTGSGSGTDFTLTISSVQAEDLAVYYCQNEYTYPLTFGAGTKLEIKR | – |
| binds | hMP-RM-1 #20 (antibody, human IgG1, kappa, V domains shown, Humanized IgG1/kappa, from CHO-S cells) VH: DVQLVESGGDLVKPGGSLKLSCVASGFTFSTYGMSWVRQTPDRRLEWVATISHGDGYTYYPDSVKGRFTISRDNAKNTLHLQMSSLKSEDTAMYYCARHGDYDDDYYAMDYWGQGTTVTVSS VL: DIVMTQSPSSLTVSLGERATMSCKSSQSLLNSGNQKNYLTWYQQKPGQPPKLLIYWASTRESGVPDRFSGSGSGTDFTLTISSVQAEDVAVYYCQNEYTYPLTFGGGTKLELKR | – |
